From patent publication US20210292423A1 (published 2021)
Read-outs that look alike come from different tables or passages of the source.

B1: single chain CD123 × CD3 bi-specific diabody in DART format MGD006 (bispecific antibody)
chain 1: QAVVTQEPSLTVSPGGTVTLTCRSSTGAVTTSNYANWVQQKPGQAPRGLIGGTNKRAPWTPARFSGSLLGGKAALTITGAQAEDEADYYCALWYSNLWVFGGGTKLTVLGGGGSGGGGEVQLVQSGAELKKPGASVKVSCKASGYTFTDYYMKWVRQAPGQGLEWIGDIIPSNGATFYNQKFKGRVTITVDKSTSTAYMELSSLRSEDTAVYYCARSHLLRASWFAYWGQGTLVTVSSGGCGGGEVAALEKEVAALEKEVAALEKEVAALEK
chain 2: DFVMTQSPDSLAVSLGERVTMSCKSSQSLLNSGNQKNYLTWYQQKPGQPPKLLIYWASTRESGVPDRFSGSGSGTDFTLTISSLQAEDVAVYYCQNDYSYPYTFGQGTKLEIKGGGSGGGGEVQLVESGGGLVQPGGSLRLSCAASGFTFSTYAMNWVRQAPGKGLEWVGRIRSKYNNYATYYADSVKDRFTISRDDSKNSLYLQMNSLKTEDTAVYYCVRHGNFGNSYVSWFAYWGQGTLVTVSSGGCGGGKVAALKEKVAALKEKVAALKEKVAALKE
notes: two chains covalently bonded by a disulfide bond; also called Single chain antibody DART format MGD006
B2: CODV-Fab hz4B4x3E3 antibody-like binding protein (bispecific antibody)
light: QFVLTQPNSVSTNLGSTVKLSCKRNTGNIGSNYVNWYQQHEGRSPTTMIYRDDKRPDGVPDRFSGSIDRSSNSALLTINNVQTEDEADYFCQSYSSGINIIFGGGTKLTVLGQPKAAPDVVMTQTPVSLSVSVGGRVSISCRSSQSLVHDNGNTYLSWSLQKPGKSPKVLIYKVSNRFSGVSSRFTGSGSGTDFTLKISSVQPDDLGVYYCGQGTQYPFTFGSGTKLEIKTKGPSRTVAAPSVFIFPPSDEQLKSGTASVVCLLNNFYPREAKVQWKVDNALQSGNSQESVTEQDSKDSTYSLSSTLTLSKADYEKHKVYACEVTHQGLSSPVTKSFNRGEC
heavy: QVQLVETGGGLVKPGQSLKLTCATSGFTFSNAWMHWVRQSPEKGLEWVAQIKARSNNYATYYAESVKGRFTISRDDSKSTIYLQMNSLTPEDTAIYYCRGTYYASKPFDYWGQGVMVTVSSSQVQLQESGPGLVQPSQTLSLTCTVSGFSLTTYDVHWVRQPPGKGLEWMGRIQNGGITDYNSALKSRLIISRDTSKSQVFLKMNSVQTEDTAMYFCAKTGSYFYAFDHWGQGTLVTVSSRTASTKGPSVFPLAPSSKSTSGGTAALGCLVKDYFPEPVTVSWNSGALTSGVHTFPAVLQSSGLYSLSSVVTVPSSSLGTQTYICNVNHKPSNTKVDKKVEPKSCDKTHTHHHHHH
notes: also called hz4B4 × 3E3 CODV-Fab
B3: CODV-Fab-TL1 hz20G6xhz7G3 antibody-like binding protein (bispecific antibody, human IgG1, kappa, L234A L235A)
light: DIVMTQSPDSLAVSLGERATINCESSQSLLNSGNQKNYLTWYQQKPGQPPKPLIYWASTRESGVPDRFSGSGSGTDFTLTISSLQAEDVAVYYCQNDYSYPYTFGQGTKLEIKGGSGSSGSGGDIVMTQTPLSLSVTPGQPASISCKSSQSLVHNNANTYLSWYLQKPGQSPQSLIYKVSNRFSGVPDRFSGSGSGTDFTLKISRVEAEDVGVYYCGQGTQYPFTFGSGTKVEIKGGSGSSGSGGRTVAAPSVFIFPPSDEQLKSGTASVVCLLNNFYPREAKVQWKVDNALQSGNSQESVTEQDSKDSTYSLSSTLTLSKADYEKHKVYACEVTHQGLSSPVTKSFNRGECDKTHTCPPCPAPEAAGGPSVFLFPPKPKDTLMISRTPEVTCVVVDVSHEDPEVKFNWYVDGVEVHNAKTKPREEQYNSTYRVVSVLTVLHQDWLNGKEYKCKVSNKALPAPIEKTISKAKGQPREPQVYTLPPSRDELTKNQVSLTCLVKGFYPSDIAVEWESNGQPENNYKTTPPVLDSDGSFFLYSKLTVDKSRWQQGNVFSCSVMHEALHNRFTQKSLSLSPG
heavy: not shown
notes: one chain of formula IV and one of formula III, IgG1 backbone; also called hz20G6xhz7G3 CODV-Fab-TL1

Key:
[1] = target: T1, human CD3 (TCR complex) on primary human T cells or Jurkat cells (human, UniProt P07766 23-207); assay: cell-based or functional assay
[2] = target: T2, human CD123 (IL3RA) on cells (human, UniProt P26951 19-378); assay: cell-based or functional assay
[3] = target: T1, human CD3 (TCR complex) on primary …; assay: cell-based or functional assay; remark: listed apart in the source
[4] = target: T3, human CD123 Strep-II tagged Fc-fusion protein (human); assay: SPR Biacore
T3 construct: also called human CD123-Fc; recombinant CD123

[5] = target: T4, human CD3ε/δ-Fc fusion protein (soluble recombinant CD3ε/δ complex) (human, UniProt P04234 22-105); assay: SPR Biacore
T4 construct: also called huCD3ε/δ; huCD3; not shown: hinge, CH2, CH3 of human IgG with tag

[6] = target: T3, human CD123 Strep-II tagged Fc-fusion …; assay: SPR Biacore; remark: listed apart in the source
[7] = target: T4, human CD3ε/δ-Fc fusion protein (soluble …); assay: SPR Biacore; remark: listed apart in the source
[8] = target: T2, human CD123 (IL3RA) on cells; assay: cell-based or functional assay; remark: listed apart in the source
[9] = target: T2, human CD123 (IL3RA) on cells; assay: cell-based or functional assay; remark: listed apart in the source

T3 sequence (chain, as listed by the source limits assumed): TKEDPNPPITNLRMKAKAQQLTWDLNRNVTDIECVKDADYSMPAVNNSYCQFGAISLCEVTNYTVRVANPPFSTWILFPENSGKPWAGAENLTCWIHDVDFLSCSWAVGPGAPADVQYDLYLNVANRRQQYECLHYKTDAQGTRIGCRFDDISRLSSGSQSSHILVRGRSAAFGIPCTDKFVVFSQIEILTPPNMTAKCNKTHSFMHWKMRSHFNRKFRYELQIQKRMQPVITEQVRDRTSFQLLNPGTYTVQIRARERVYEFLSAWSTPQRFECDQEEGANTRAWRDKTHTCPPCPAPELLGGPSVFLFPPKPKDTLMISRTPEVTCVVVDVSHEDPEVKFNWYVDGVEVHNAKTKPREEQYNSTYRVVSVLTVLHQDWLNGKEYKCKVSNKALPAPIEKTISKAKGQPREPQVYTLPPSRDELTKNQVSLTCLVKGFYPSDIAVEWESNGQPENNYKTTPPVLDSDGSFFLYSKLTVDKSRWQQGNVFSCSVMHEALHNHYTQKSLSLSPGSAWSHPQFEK
T2 sequence (P26951 19-378): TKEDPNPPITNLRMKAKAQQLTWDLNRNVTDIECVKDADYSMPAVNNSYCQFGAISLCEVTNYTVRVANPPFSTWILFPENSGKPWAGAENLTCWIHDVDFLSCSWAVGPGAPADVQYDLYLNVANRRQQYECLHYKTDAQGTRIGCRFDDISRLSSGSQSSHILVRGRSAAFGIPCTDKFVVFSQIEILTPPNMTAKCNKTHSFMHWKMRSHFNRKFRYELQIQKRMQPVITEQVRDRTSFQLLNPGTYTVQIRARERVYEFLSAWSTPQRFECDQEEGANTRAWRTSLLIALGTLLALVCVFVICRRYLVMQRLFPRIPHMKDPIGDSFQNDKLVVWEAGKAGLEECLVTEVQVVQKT
T4 sequence (chain, as listed by the source mutant, chain 1 of 2): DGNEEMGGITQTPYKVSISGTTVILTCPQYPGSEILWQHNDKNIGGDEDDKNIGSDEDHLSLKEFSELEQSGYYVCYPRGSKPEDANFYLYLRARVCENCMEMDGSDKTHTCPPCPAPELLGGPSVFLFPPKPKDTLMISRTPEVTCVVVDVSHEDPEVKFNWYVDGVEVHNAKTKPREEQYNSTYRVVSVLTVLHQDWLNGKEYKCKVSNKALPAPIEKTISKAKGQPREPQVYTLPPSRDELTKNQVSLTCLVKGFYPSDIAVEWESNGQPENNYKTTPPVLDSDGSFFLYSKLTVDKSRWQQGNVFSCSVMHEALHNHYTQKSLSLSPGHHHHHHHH
T4 sequence (P04234 22-105, stated change not applied, chain 2 of 2): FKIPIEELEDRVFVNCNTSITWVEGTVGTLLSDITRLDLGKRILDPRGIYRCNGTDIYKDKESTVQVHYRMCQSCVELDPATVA
T1 sequence (P07766 23-207, one chain of several): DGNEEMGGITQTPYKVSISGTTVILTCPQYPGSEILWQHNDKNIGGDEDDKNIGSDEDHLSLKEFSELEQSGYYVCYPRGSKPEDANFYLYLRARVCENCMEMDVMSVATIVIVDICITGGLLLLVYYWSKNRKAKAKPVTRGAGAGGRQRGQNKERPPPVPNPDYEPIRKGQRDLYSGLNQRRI

| Binder | T cell activation with THP-1 target cells, CD4+ T cells (% CD69+ cells) EC50 (pM) [1] [pM] | T cell activation with THP-1 target cells, CD8+ T cells (% CD69+ cells) EC50 (pM) [1] [pM] | Cytotoxic assay (THP cells) EC50 [pM] [2] [pM] | Jurkat-NFAT-Luc reporter, no target cells, activation at Cmax in relation to max. activation in assay with target cells (%) [3] [%] | Jurkat-NFAT-Luc reporter, with THP1 cells, EC50 (pM) [3] [pM] | Kd [4] [nM] | Kd [5] [nM] | Kd [6] [nM] | Kd [7] [nM] | Cytotoxicity (THP-1) geomean EC50 [8] [ng/mL] | Cytotoxicity (THP-1) geomean EC50 [pM] [8] [pM] | Cytotoxic assay (THP cells) EC50 [pM] [9] [pM] |
| --- | --- | --- | --- | --- | --- | --- | --- | --- | --- | --- | --- | --- |
| B1 | 1 | 3.5 | 0.3 | 25.1 | 370 | 0.2 | 9 |  |  |  |  |  |
| B2 |  |  |  |  |  |  |  | 4.8 | 7 | 2 | 26.5 | 26.5 |
| B3 | 3.2 | 9.9 | 1 | 0.4 | 444 | 0.2 | 11 |  |  |  |  |  |
